Measured values as given in the RNAGym collection of RNA variant scans (doi:10.7554/elife.90254).

B1: LINE1-mini (parent)
chain: GGCAGAGCUCAACACAGCGUGGCAAAGUGGCUGUGGCUAGACUGCC

Variants of: B1
Assay: self-cleavage, relative activity (ratio to wild type); higher = more cleavage; in vitro, sequencing; the parent is a self-cleaving ribozyme
With A24U A41C the self-cleavage was 0.07.
With A16U G44C the self-cleavage was 0.03.
Work on G1U C42A yielded a self-cleavage of 0.07.
With C15G A39U the self-cleavage was 0.04.
With G5A G33U the self-cleavage was 0.05.
For G29A U34G, the self-cleavage was 0.38.
In the case of C10G U28C, the self-cleavage is reported as 0.12.
Variant C18A C42U has a self-cleavage of 0.13.
Variant A14U U20C has a self-cleavage of 0.19.
G1C G44C gave a self-cleavage of 0.03.
With A14U G22U the self-cleavage was 0.87.
For A4U A24C, the self-cleavage was 0.4.
A26U U38G gave a self-cleavage of 0.03.
In the case of U9G A14C, the self-cleavage is reported as 0.2.
With G5U C13U the self-cleavage was 0.11.
With A24G G29U the self-cleavage was 1.07.
G7C A14G gave a self-cleavage of 0.08.
Variant G7C A14U has a self-cleavage of 0.15.
In the case of A11U C23U, the self-cleavage is reported as 0.1.
C18G A24G gave a self-cleavage of 0.44.
C15G G21C gave a self-cleavage of 0.17.
G36A C42U showed a self-cleavage of 0.15.
In the case of A41C C45A, the self-cleavage is reported as 0.11.
With A41C C45U the self-cleavage was 0.1.
C31A gave a self-cleavage of 0.15.
With C13G G27A the self-cleavage was 0.27.
For C10U U28C, the self-cleavage was 0.13.
C23U A41U showed a self-cleavage of 0.57.
Variant A6U G7A has a self-cleavage of 0.26.
Work on C18U G19U yielded a self-cleavage of 1.14.
With G7C G17U the self-cleavage was 0.09.
Work on A11U A24G yielded a self-cleavage of 0.15.
With G2C C46U the self-cleavage was 0.07.
G36U A39C gave a self-cleavage of 0.08.
With G7U C46A the self-cleavage was 0.19.
Variant G19U G40U has a self-cleavage of 0.1.
A4U A26U gave a self-cleavage of 0.2.
G19U G27C showed a self-cleavage of 0.75.
G1A G2A gave a self-cleavage of 1.83.
With A6G G17A the self-cleavage was 0.09.
For G1U G21C, the self-cleavage was 0.39.
For G5A U34C, the self-cleavage was 0.08.
In the case of G5A U34G, the self-cleavage is reported as 0.04.
Work on C10U U38C yielded a self-cleavage of 0.17.
G22C A24G gave a self-cleavage of 0.74.
In the case of G5C A14G, the self-cleavage is reported as 0.04.
G2U C10A gave a self-cleavage of 0.02.
Work on G27U U38C yielded a self-cleavage of 0.58.
With A4U C18A the self-cleavage was 0.07.
C3U A26G showed a self-cleavage of 0.34.
Variant G30A U38G has a self-cleavage of 0.03.
In the case of A12U C13U, the self-cleavage is reported as 0.14.
Work on G19C C42G yielded a self-cleavage of 0.01.
A11G C37G showed a self-cleavage of 0.03.
With A4G G7U the self-cleavage was 0.18.
Variant G21U C37U has a self-cleavage of 0.06.
For C23G G36A, the self-cleavage was 0.14.
C23G G35U showed a self-cleavage of 0.11.
Work on C10A G22A yielded a self-cleavage of 0.05.
A6C C13G showed a self-cleavage of 0.15.
U9G G19A gave a self-cleavage of 0.18.
With G19C C31A the self-cleavage was 0.63.
Variant G2U G22A has a self-cleavage of 0.11.
For U43A C45U, the self-cleavage was 0.16.
In the case of G5U A14U, the self-cleavage is reported as 0.07.
C8A C10U gave a self-cleavage of 0.08.
Variant U28G U38G has a self-cleavage of 0.02.
In the case of G21A A41G, the self-cleavage is reported as 0.44.
Work on G22U yielded a self-cleavage of 1.38.
Work on C8G C42A yielded a self-cleavage of 0.05.
G5U C23U showed a self-cleavage of 0.12.
G19A U28A gave a self-cleavage of 1.57.
A4C A41U showed a self-cleavage of 0.23.
Variant C3U A24U has a self-cleavage of 0.73.
For A6U U9A, the self-cleavage was 0.17.
With U20G U28C the self-cleavage was 0.67.
G21A U28G showed a self-cleavage of 1.2.
Variant C15U A16G has a self-cleavage of 0.42.
With U32C U38C the self-cleavage was 0.06.
A11U A39G showed a self-cleavage of 0.06.
G7U A24G showed a self-cleavage of 0.06.
In the case of A25C G29A, the self-cleavage is reported as 0.75.
Variant U32C G33A has a self-cleavage of 0.05.
In the case of U32G A41G, the self-cleavage is reported as 0.08.
Work on G27U A41U yielded a self-cleavage of 0.49.
In the case of C18G G27C, the self-cleavage is reported as 0.38.
In the case of G5A U9C, the self-cleavage is reported as 0.04.
Variant C13U A26C has a self-cleavage of 0.24.
For A12C U34A, the self-cleavage was 0.02.
A14G U43G showed a self-cleavage of 0.11.
G2C A41C showed a self-cleavage of 0.12.
Variant G30C C42G has a self-cleavage of 0.04.
G30C C42U gave a self-cleavage of 0.18.
For A24U U28A, the self-cleavage was 1.25.
A24U U28C showed a self-cleavage of 0.69.
In the case of G1A C42G, the self-cleavage is reported as 0.06.
A6C gave a self-cleavage of 0.71.
Variant C8A C18U has a self-cleavage of 0.27.
Work on C8A C45G yielded a self-cleavage of 0.28.
G21U G29U gave a self-cleavage of 0.55.
For C8A C31U, the self-cleavage was 0.21.
With A6U G29U the self-cleavage was 0.66.
With U32G U38C the self-cleavage was 0.12.
Variant U9C G30U has a self-cleavage of 0.02.
In the case of A6G G19C, the self-cleavage is reported as 0.05.
C8G G29C showed a self-cleavage of 0.04.
G21C A39C gave a self-cleavage of 0.07.
G33C U38A gave a self-cleavage of 0.04.
With C3A G33A the self-cleavage was 0.37.
For G29A C31G, the self-cleavage was 0.39.
G27A G33C showed a self-cleavage of 0.08.
With C8G A26G the self-cleavage was 0.07.
For A4G U38A, the self-cleavage was 0.23.
For C8G C18A, the self-cleavage was 0.04.
With A39G A41C the self-cleavage was 0.03.
For G22A U43G, the self-cleavage was 0.
Variant G33U G35C has a self-cleavage of 0.06.
Work on A14C U43A yielded a self-cleavage of 0.2.
For G22A U38G, the self-cleavage was 0.01.
A6C G36C showed a self-cleavage of 0.16.
For A6U U20G, the self-cleavage was 0.55.
In the case of G1A, the self-cleavage is reported as 1.11.
Variant U32A C42U has a self-cleavage of 0.05.
Work on G27C G33C yielded a self-cleavage of 0.04.
In the case of C13U C15G, the self-cleavage is reported as 0.08.
Work on U9G C37U yielded a self-cleavage of 0.15.
U9G C37A showed a self-cleavage of 0.22.
G7A C15A gave a self-cleavage of 0.19.
Work on C42A U43A yielded a self-cleavage of 0.15.
Variant G7C C42U has a self-cleavage of 0.09.
C42A C46A gave a self-cleavage of 0.2.
G1U G17C gave a self-cleavage of 0.05.
A11U G19C gave a self-cleavage of 0.1.
For A16U G22C, the self-cleavage was 0.28.
Work on C3A U32G yielded a self-cleavage of 0.15.
G30C G44C gave a self-cleavage of 0.27.
A12C U38C showed a self-cleavage of 0.04.
C37A C46G showed a self-cleavage of 0.06.
For G21A C23U, the self-cleavage was 1.02.
U9A G17U gave a self-cleavage of 0.13.
G29A gave a self-cleavage of 0.88.
C31G G35U gave a self-cleavage of 0.03.
U28A showed a self-cleavage of 0.71.
Variant C10A G33U has a self-cleavage of 0.05.
U28A C31A gave a self-cleavage of 0.83.
G2A A6C showed a self-cleavage of 0.33.
In the case of A11U A12C, the self-cleavage is reported as 0.04.
With G35A A39U the self-cleavage was 0.12.
A14U G44U showed a self-cleavage of 0.06.
Variant C3A C46U has a self-cleavage of 0.41.
G1U A24G showed a self-cleavage of 0.25.
G1U G2U gave a self-cleavage of 0.13.
C15A C46U gave a self-cleavage of 0.12.
C42U C46G gave a self-cleavage of 0.19.
A6C C18A gave a self-cleavage of 0.2.
A6C C18G gave a self-cleavage of 0.24.
In the case of G7U U20G, the self-cleavage is reported as 0.08.
With C10U U34A the self-cleavage was 0.14.
Variant U28A C42A has a self-cleavage of 0.12.
Work on U20A U28C yielded a self-cleavage of 0.67.
A11G U43G gave a self-cleavage of 0.
For C3G G22C, the self-cleavage was 0.26.
In the case of C13G C18U, the self-cleavage is reported as 0.09.
Work on U9A G21A yielded a self-cleavage of 0.3.
With C3G C42U the self-cleavage was 0.31.
For C3G C42G, the self-cleavage was 0.05.
C3G C42A showed a self-cleavage of 0.28.
